Measured values reported in publication PMC8873477, “Structural basis of adenylyl cyclase 9 activation” (Nature Communications, 2022).

Target: T1, C-terminally truncated bovine AC9_(1250) (residues 1-1250 of AC9) (bovine, UniProt E1BM79 1-1250)
T1 construct: the purification is said to be identical to that of AC9; source: HEK293F cells, transient transfection (PEI), purified as AC9
T1 sequence (looked up): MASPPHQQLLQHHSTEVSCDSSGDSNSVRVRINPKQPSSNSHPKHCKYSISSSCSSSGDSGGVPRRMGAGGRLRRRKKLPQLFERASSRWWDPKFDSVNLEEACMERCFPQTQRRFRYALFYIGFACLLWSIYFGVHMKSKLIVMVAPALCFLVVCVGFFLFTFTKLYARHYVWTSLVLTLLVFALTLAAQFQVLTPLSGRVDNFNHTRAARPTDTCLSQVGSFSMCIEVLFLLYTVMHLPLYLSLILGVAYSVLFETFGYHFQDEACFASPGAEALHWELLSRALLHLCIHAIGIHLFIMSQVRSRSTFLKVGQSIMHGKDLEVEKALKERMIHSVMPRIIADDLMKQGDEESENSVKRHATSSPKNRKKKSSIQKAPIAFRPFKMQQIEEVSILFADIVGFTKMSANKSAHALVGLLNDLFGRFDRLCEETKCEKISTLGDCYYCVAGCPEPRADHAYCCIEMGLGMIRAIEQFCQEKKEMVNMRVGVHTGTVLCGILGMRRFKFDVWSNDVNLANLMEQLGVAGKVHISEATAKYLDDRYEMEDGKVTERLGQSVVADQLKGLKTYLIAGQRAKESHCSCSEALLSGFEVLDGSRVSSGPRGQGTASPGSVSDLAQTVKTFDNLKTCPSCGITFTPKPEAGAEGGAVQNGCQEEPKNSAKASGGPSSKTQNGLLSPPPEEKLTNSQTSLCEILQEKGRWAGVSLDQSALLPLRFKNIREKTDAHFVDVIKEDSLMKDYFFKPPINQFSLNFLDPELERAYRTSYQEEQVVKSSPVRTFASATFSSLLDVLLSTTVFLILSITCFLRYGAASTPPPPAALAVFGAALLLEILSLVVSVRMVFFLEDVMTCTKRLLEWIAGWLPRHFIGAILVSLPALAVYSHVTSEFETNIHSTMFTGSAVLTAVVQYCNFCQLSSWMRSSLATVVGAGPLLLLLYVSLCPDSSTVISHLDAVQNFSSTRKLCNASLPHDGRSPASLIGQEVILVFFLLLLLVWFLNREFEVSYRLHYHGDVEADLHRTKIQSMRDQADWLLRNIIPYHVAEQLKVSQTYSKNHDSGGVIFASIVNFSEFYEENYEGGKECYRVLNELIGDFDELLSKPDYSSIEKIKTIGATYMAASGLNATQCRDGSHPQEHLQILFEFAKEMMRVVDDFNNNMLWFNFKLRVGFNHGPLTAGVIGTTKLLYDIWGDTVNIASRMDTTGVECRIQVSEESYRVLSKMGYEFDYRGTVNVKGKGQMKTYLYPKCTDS
Experiment: cryo-EM structure; AC9_(1250) at 5 mg/ml with 5 mM MnCl2, 0.5 mM MANT-GTP and a 2-fold molar excess of GTPγS-activated Gαs, 30 min at 4 °C; no forskolin; soluble part refined to 3.8 Å
Settings: both partners purified

B1: bovine Gαs (G protein αs subunit), GTPγS-activated (natural protein, UniProt P04896-1 1-394, looked up)
chain: MGCLGNSKTEDQRNEEKAQREANKKIEKQLQKDKQVYRATHRLLLLGAGESGKSTIVKQMRILHVNGFNGEGGEEDPQAARSNSDGEKATKVQDIKNNLKEAIETIVAAMSNLVPPVELANPENQFRVDYILSVMNVPDFDFPPEFYEHAKALWEDEGVRACYERSNEYQLIDCAQYFLDKIDVIKQDDYVPSDQDLLRCRVLTSGIFETKFQVDKVNFHMFDVGGQRDERRKWIQCFNDVTAIIFVVASSSYNMVIREDNQTNRLQEALNLFKSIWNNRWLRTISVILFLNKQDLLAEKVLAGKSKIEDYFPEFARYTTPEDATPEPGEDPRVTRAKYFIRDEFLRISTASGDGRHYCYPHFTCAVDTENIRRVFNDCRDIIQRMHLRQYELL
notes: bovine Gαs, Uniprot ID P04896-1; also called G protein α subunit; source: High Five insect cells, baculovirus, purified (Ni-NTA, Superdex 200 SEC)
binding result: binds
